Data reported in patent US10941182 (Amgen, dated 2021).
Starred links: 1 amine or outer side, 2 acyl side, 3 side chain; linkers in the order of their positions; H or OH if unused. Non-standard residues stand in square brackets, D forms with d. *: point of attachment. AC4Abu = α-carboxy-4-aminobutyric acid, O=C(C(CCN[*:1])C(=O)[*:3])[*:2]; Oic = O=C(O)[C@@H]1C[C@@H]2CCCC[C@@H]2N1; Phe(4-Cl) = N[C@@H](Cc1ccc(Cl)cc1)C(=O)O; dPhe(4-Cl) = N[C@H](Cc1ccc(Cl)cc1)C(=O)O; γGlu = O=C(O)[C@H](CCC(=O)[*:2])N[*:1]; 2Nal = N[C@@H](Cc1ccc2ccccc2c1)C(=O)O; NMeR = CN[C@@H](CCCNC(=N)N)C(=O)O; Tridecanoyl = CCCCCCCCCCCCC(=O)*; hArg = N=C(N)NCCCC[C@H](N)C(=O)O; 3Pal = N[C@@H](Cc1cccnc1)C(=O)O; Cha = N[C@@H](CC1CCCCC1)C(=O)O; αMeL = CC(C)C[C@](C)(N)C(=O)O; β3hL = CC(C)C[C@H](N)CC(=O)O; Nle = CCCC[C@H](N)C(=O)O; AEEA = NCCOCCOCC(=O)O; βAla = NCCC(=O)O

B1: Apelin polypeptide SEQ ID NO: 358 (peptide)
peptide: Tridecanoyl-[γGlu][AEEA][AEEA]Q[hArg]P[hArg]LSHKG[Oic][Nle]P[Phe(4-Cl)]-OH
SMILES: CCCCCCCCCCCCC(=O)N[C@@H](CCC(=O)NCCOCCOCC(=O)NCCOCCOCC(=O)N[C@@H](CCC(N)=O)C(=O)N[C@@H](CCCCNC(=N)N)C(=O)N1CCC[C@H]1C(=O)N[C@@H](CCCCNC(=N)N)C(=O)N[C@@H](CC(C)C)C(=O)N[C@@H](CO)C(=O)N[C@@H](Cc1c[nH]cn1)C(=O)N[C@@H](CCCCN)C(=O)NCC(=O)N1[C@H](C(=O)N[C@@H](CCCC)C(=O)N2CCC[C@H]2C(=O)N[C@@H](Cc2ccc(Cl)cc2)C(=O)O)C[C@@H]2CCCC[C@@H]21)C(=O)O
B2: Apelin polypeptide SEQ ID NO: 488 (peptide)
peptide: Tridecanoyl-[γGlu][AEEA][AEEA][dQ][hArg]P[hArg][Cha]SHKG[Oic][Nle]P[Phe(4-Cl)]-OH
SMILES: CCCCCCCCCCCCC(=O)N[C@@H](CCC(=O)NCCOCCOCC(=O)NCCOCCOCC(=O)N[C@H](CCC(N)=O)C(=O)N[C@@H](CCCCNC(=N)N)C(=O)N1CCC[C@H]1C(=O)N[C@@H](CCCCNC(=N)N)C(=O)N[C@@H](CC1CCCCC1)C(=O)N[C@@H](CO)C(=O)N[C@@H](Cc1c[nH]cn1)C(=O)N[C@@H](CCCCN)C(=O)NCC(=O)N1[C@H](C(=O)N[C@@H](CCCC)C(=O)N2CCC[C@H]2C(=O)N[C@@H](Cc2ccc(Cl)cc2)C(=O)O)C[C@@H]2CCCC[C@@H]21)C(=O)O
B3: Apelin polypeptide SEQ ID NO: 486 (peptide)
peptide: Tridecanoyl-[γGlu][AEEA][AEEA][dQ][hArg][Oic][dR][Cha]SHKG[Oic][Nle]P[Phe(4-Cl)]-OH
SMILES: CCCCCCCCCCCCC(=O)N[C@@H](CCC(=O)NCCOCCOCC(=O)NCCOCCOCC(=O)N[C@H](CCC(N)=O)C(=O)N[C@@H](CCCCNC(=N)N)C(=O)N1[C@H](C(=O)N[C@H](CCCNC(=N)N)C(=O)N[C@@H](CC2CCCCC2)C(=O)N[C@@H](CO)C(=O)N[C@@H](Cc2c[nH]cn2)C(=O)N[C@@H](CCCCN)C(=O)NCC(=O)N2[C@H](C(=O)N[C@@H](CCCC)C(=O)N3CCC[C@H]3C(=O)N[C@@H](Cc3ccc(Cl)cc3)C(=O)O)C[C@@H]3CCCC[C@@H]32)C[C@@H]2CCCC[C@@H]21)C(=O)O
B4: Apelin polypeptide SEQ ID NO: 293 (peptide)
peptide: Tridecanoyl-[γGlu][AEEA][AEEA][dQ][hArg]P[NMeR][Cha]SH[βAla]G[Oic][Nle]P[dPhe(4-Cl)]-OH
SMILES: CCCCCCCCCCCCC(=O)N[C@@H](CCC(=O)NCCOCCOCC(=O)NCCOCCOCC(=O)N[C@H](CCC(N)=O)C(=O)N[C@@H](CCCCNC(=N)N)C(=O)N1CCC[C@H]1C(=O)N(C)[C@@H](CCCNC(=N)N)C(=O)N[C@@H](CC1CCCCC1)C(=O)N[C@@H](CO)C(=O)N[C@@H](Cc1c[nH]cn1)C(=O)NCCC(=O)NCC(=O)N1[C@H](C(=O)N[C@@H](CCCC)C(=O)N2CCC[C@H]2C(=O)N[C@H](Cc2ccc(Cl)cc2)C(=O)O)C[C@@H]2CCCC[C@@H]21)C(=O)O
B5: Apelin polypeptide SEQ ID NO: 305 (peptide)
peptide: Tridecanoyl-[γGlu][AEEA][AEEA][dQ][hArg]P[NMeR][Cha]SH[3Pal]G[Oic][Nle]P[dPhe(4-Cl)]-OH
SMILES: CCCCCCCCCCCCC(=O)N[C@@H](CCC(=O)NCCOCCOCC(=O)NCCOCCOCC(=O)N[C@H](CCC(N)=O)C(=O)N[C@@H](CCCCNC(=N)N)C(=O)N1CCC[C@H]1C(=O)N(C)[C@@H](CCCNC(=N)N)C(=O)N[C@@H](CC1CCCCC1)C(=O)N[C@@H](CO)C(=O)N[C@@H](Cc1c[nH]cn1)C(=O)N[C@@H](Cc1cccnc1)C(=O)NCC(=O)N1[C@H](C(=O)N[C@@H](CCCC)C(=O)N2CCC[C@H]2C(=O)N[C@H](Cc2ccc(Cl)cc2)C(=O)O)C[C@@H]2CCCC[C@@H]21)C(=O)O
B6: Apelin polypeptide SEQ ID NO: 304 (peptide)
peptide: Tridecanoyl-[γGlu][AEEA][AEEA][dQ][hArg]P[NMeR][Cha]S[βAla]KG[Oic][Nle]P[dPhe(4-Cl)]-OH
SMILES: CCCCCCCCCCCCC(=O)N[C@@H](CCC(=O)NCCOCCOCC(=O)NCCOCCOCC(=O)N[C@H](CCC(N)=O)C(=O)N[C@@H](CCCCNC(=N)N)C(=O)N1CCC[C@H]1C(=O)N(C)[C@@H](CCCNC(=N)N)C(=O)N[C@@H](CC1CCCCC1)C(=O)N[C@@H](CO)C(=O)NCCC(=O)N[C@@H](CCCCN)C(=O)NCC(=O)N1[C@H](C(=O)N[C@@H](CCCC)C(=O)N2CCC[C@H]2C(=O)N[C@H](Cc2ccc(Cl)cc2)C(=O)O)C[C@@H]2CCCC[C@@H]21)C(=O)O
B7: Apelin polypeptide SEQ ID NO: 489 (peptide)
peptide: Tridecanoyl-[γGlu][AEEA][AEEA]Q[hArg]P[hArg][Cha]SHKG[Oic][Nle]P[Phe(4-Cl)]-OH
SMILES: CCCCCCCCCCCCC(=O)N[C@@H](CCC(=O)NCCOCCOCC(=O)NCCOCCOCC(=O)N[C@@H](CCC(N)=O)C(=O)N[C@@H](CCCCNC(=N)N)C(=O)N1CCC[C@H]1C(=O)N[C@@H](CCCCNC(=N)N)C(=O)N[C@@H](CC1CCCCC1)C(=O)N[C@@H](CO)C(=O)N[C@@H](Cc1c[nH]cn1)C(=O)N[C@@H](CCCCN)C(=O)NCC(=O)N1[C@H](C(=O)N[C@@H](CCCC)C(=O)N2CCC[C@H]2C(=O)N[C@@H](Cc2ccc(Cl)cc2)C(=O)O)C[C@@H]2CCCC[C@@H]21)C(=O)O
B8: Apelin polypeptide SEQ ID NO: 303 (peptide)
peptide: Tridecanoyl-[AC4Abu][AEEA][AEEA][dQ][hArg]P[NMeR][Cha][βAla]HKG[Oic][Nle]P[dPhe(4-Cl)]-OH
SMILES: CCCCCCCCCCCCC(=O)NCCC(C(=O)O)C(=O)NCCOCCOCC(=O)NCCOCCOCC(=O)N[C@H](CCC(N)=O)C(=O)N[C@@H](CCCCNC(=N)N)C(=O)N1CCC[C@H]1C(=O)N(C)[C@@H](CCCNC(=N)N)C(=O)N[C@@H](CC1CCCCC1)C(=O)NCCC(=O)N[C@@H](Cc1c[nH]cn1)C(=O)N[C@@H](CCCCN)C(=O)NCC(=O)N1[C@H](C(=O)N[C@@H](CCCC)C(=O)N2CCC[C@H]2C(=O)N[C@H](Cc2ccc(Cl)cc2)C(=O)O)C[C@@H]2CCCC[C@@H]21
B9: Apelin polypeptide SEQ ID NO: 473 (peptide)
peptide: Tridecanoyl-[γGlu][AEEA][AEEA]Q[hArg]P[NMeR][αMeL]SHKGP[Nle]P[2Nal]-OH
SMILES: CCCCCCCCCCCCC(=O)N[C@@H](CCC(=O)NCCOCCOCC(=O)NCCOCCOCC(=O)N[C@@H](CCC(N)=O)C(=O)N[C@@H](CCCCNC(=N)N)C(=O)N1CCC[C@H]1C(=O)N(C)[C@@H](CCCNC(=N)N)C(=O)N[C@@](C)(CC(C)C)C(=O)N[C@@H](CO)C(=O)N[C@@H](Cc1c[nH]cn1)C(=O)N[C@@H](CCCCN)C(=O)NCC(=O)N1CCC[C@H]1C(=O)N[C@@H](CCCC)C(=O)N1CCC[C@H]1C(=O)N[C@@H](Cc1ccc2ccccc2c1)C(=O)O)C(=O)O
B10: Apelin polypeptide SEQ ID NO: 359 (peptide)
peptide: Tridecanoyl-[γGlu][AEEA][AEEA]Q[hArg]P[NMeR][αMeL]SHKG[Oic][Nle]P[Phe(4-Cl)]-OH
SMILES: CCCCCCCCCCCCC(=O)N[C@@H](CCC(=O)NCCOCCOCC(=O)NCCOCCOCC(=O)N[C@@H](CCC(N)=O)C(=O)N[C@@H](CCCCNC(=N)N)C(=O)N1CCC[C@H]1C(=O)N(C)[C@@H](CCCNC(=N)N)C(=O)N[C@@](C)(CC(C)C)C(=O)N[C@@H](CO)C(=O)N[C@@H](Cc1c[nH]cn1)C(=O)N[C@@H](CCCCN)C(=O)NCC(=O)N1[C@H](C(=O)N[C@@H](CCCC)C(=O)N2CCC[C@H]2C(=O)N[C@@H](Cc2ccc(Cl)cc2)C(=O)O)C[C@@H]2CCCC[C@@H]21)C(=O)O
B11: Apelin polypeptide SEQ ID NO: 302 (peptide)
peptide: Tridecanoyl-[γGlu][AEEA][AEEA][dQ][hArg]P[NMeR][β3hL]SHKG[Oic][Nle]P[dPhe(4-Cl)]-OH
SMILES: CCCCCCCCCCCCC(=O)N[C@@H](CCC(=O)NCCOCCOCC(=O)NCCOCCOCC(=O)N[C@H](CCC(N)=O)C(=O)N[C@@H](CCCCNC(=N)N)C(=O)N1CCC[C@H]1C(=O)N(C)[C@@H](CCCNC(=N)N)C(=O)N[C@H](CC(=O)N[C@@H](CO)C(=O)N[C@@H](Cc1c[nH]cn1)C(=O)N[C@@H](CCCCN)C(=O)NCC(=O)N1[C@H](C(=O)N[C@@H](CCCC)C(=O)N2CCC[C@H]2C(=O)N[C@H](Cc2ccc(Cl)cc2)C(=O)O)C[C@@H]2CCCC[C@@H]21)CC(C)C)C(=O)O

The binders below were run against T1, rat APJ receptor (rat, UniProt Q9JHG3 1-377) (assay: cell-based or functional assay).
T1 sequence (looked up): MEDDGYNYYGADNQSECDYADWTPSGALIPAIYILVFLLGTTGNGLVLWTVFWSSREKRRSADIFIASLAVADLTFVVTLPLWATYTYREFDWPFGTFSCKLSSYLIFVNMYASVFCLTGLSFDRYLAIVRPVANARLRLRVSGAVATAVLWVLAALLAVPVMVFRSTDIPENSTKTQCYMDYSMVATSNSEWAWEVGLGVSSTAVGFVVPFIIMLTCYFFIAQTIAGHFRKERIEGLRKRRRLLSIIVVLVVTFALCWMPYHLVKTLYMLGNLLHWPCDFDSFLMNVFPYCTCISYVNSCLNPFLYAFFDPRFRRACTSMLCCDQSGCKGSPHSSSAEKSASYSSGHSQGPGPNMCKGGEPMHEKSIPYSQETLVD

| EC50 Rat APJ Receptor (GTPγS assay) [nM] | Binder |
| --- | --- |
| 0.314 | B1 |
| 1.72 | B2 |
| 4.04 | B3 |
| 110 | B4 |
| 66.7 | B5 |
| 260 | B6 |
| 3.59 | B7 |
| 74.1 | B8 |
| 0.465 | B9 |
| 0.116 | B10 |
| 14.3 | B11 |
| 0.0628 | XXXQRPRLSHKGPXPF ({TDA}[AC4Abu][Aeea][Aeea]Q[hArg]P[NMeArg][aMeLeu]SHKGP[Nle]P[4-Cl-F]{COOH}) [Apelin polypeptide SEQ ID NO: 460] |

These binders were tested against T2, human APJ receptor (human, UniProt P35414 1-380) (assay: cell-based or functional assay).
T2 sequence (looked up): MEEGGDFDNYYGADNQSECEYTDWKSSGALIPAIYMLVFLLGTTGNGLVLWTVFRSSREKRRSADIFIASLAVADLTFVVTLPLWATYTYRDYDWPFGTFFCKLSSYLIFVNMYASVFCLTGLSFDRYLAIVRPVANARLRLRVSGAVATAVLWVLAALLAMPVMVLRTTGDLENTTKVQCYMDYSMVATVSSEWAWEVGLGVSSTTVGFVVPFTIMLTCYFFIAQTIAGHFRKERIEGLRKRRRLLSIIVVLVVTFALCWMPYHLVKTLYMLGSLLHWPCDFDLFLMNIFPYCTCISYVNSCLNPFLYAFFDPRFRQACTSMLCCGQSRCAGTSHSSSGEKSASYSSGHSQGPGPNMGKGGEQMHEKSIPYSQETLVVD

| EC50 Human APJ Receptor (GTPγS assay) [nM] | Binder |
| --- | --- |
| 0.285 | B1 |
| 0.198 | B2 |
| 1.79 | B3 |
| 109 | B4 |
| 78 | B5 |
| 139 | B6 |
| 0.601 | B7 |
| 79.2 | B8 |
| 0.099 | B9 |
| 0.0529 | B10 |
| 16.5 | B11 |
| 0.0347 | XXXQRPRLSHKGPXPF ({TDA}[AC4Abu][Aeea][Aeea]Q[hArg]P[NMeArg][aMeLeu]SHKGP[Nle]P[4-Cl-F]{COOH}) [Apelin polypeptide SEQ ID NO: 460] |
